Laboratory results from PMC3717276, “Optimization and validation of mitochondria-based functional assay as a useful tool to identify BH3-like molecules selectively targeting anti-apoptotic Bcl-2 proteins” (BMC Biotechnology, 2013).
Ends that are not written are not given here. * marks the point of attachment. 6FAM = O=C1OC2(c3ccc(O)cc3Oc3cc(O)ccc32)c2cc(C(=O)*)ccc21

B1: Human Mcl-1 protein, residues 171-327, N-terminal 8xHis tag (domain or fragment, UniProt Q07820-1 171-327, looked up)
chain: EDELYRQSLEIISRYLREQATGAKDTKPMGRSGATSRKALETLRRVGDGVQRNHETAFQGMLRKLDIKNEDDVKSLSRVMIHVFSDGVTNWGRIVTLISFGAFVAKHLKTINQESCIEPLAESITDVLVRTKRDWLVKQRGWDGFVEFFHVEDLEGG
notes: human Mcl-1 fragment (NM_021960), residues 171-327; Cloned into the pHis-TEV vector; source: E. coli BL21(DE3), purified (Ni-NTA, Source Q15)

Experiments:
Settings in all cases: both partners purified
[1] = target: B1; assay: fluorescence polarisation; saturation experiments with FAM-Bid and Mcl-1 or Bcl-2 protein; assay buffer 100 mM potassium phosphate, pH 7.5, 100 ug/ml bovine gamma globulin, 0.02% sodium azide
[2] = target: T1, Human Bcl-xL protein with internal deletion of 45-85 and C-terminal truncation of 212-233, N-terminal 8xHis … (human, UniProt Q07817-1 1-211, internal deletion of 45–85); assay: fluorescence polarisation; competition: 30 nM Bcl-xL and 2.5 nM FAM-Bak, tested BH3 peptide added; 50 mM Tris-Bis, pH 7.4, 0.01% bovine gamma globulin; Ki calculated from IC50
T1 construct: human Bcl-xL (NM_138578), internal deletion of residues 45-85 and C-terminal truncation of 212-233; Cloned into the pHis-TEV vector (a modified pET vector); source: E. coli BL21(DE3), purified (Ni-NTA, Superdex75)

[3] = target: T1, Human Bcl-xL protein with internal …; assay: SPR; competitive solution binding: protein (20 nM) pre-incubated with tested BH3 peptide for at least 30 min, injected over immobilised biotin-Bim BH3 peptide; response at 30 s of dissociation
[4] = target: B1; assay: as above
[5] = target: B1; assay: fluorescence polarisation; competition: Mcl-1 (20 nM) or Bcl-2 (40 nM) pre-incubated with FAM-Bid (2 nM and 2.5 nM), tested BH3 peptide added, 2-3 h; 100 mM potassium phosphate, pH 7.5, 100 ug/ml bovine gamma globulin, 0.02% sodium azide; Ki calculated from IC50
[6] = target: T2, Biotin-labeled Bim BH3 peptide (residues 81-106) (biotin label, position not stated); assay: SPR; biotin-labeled Bim BH3 peptide immobilised on a streptavidin SA chip; proteins injected at different concentrations in HBS-EP (10 mM HEPES pH 7.4, 150 mM NaCl, 3 mM EDTA, 0.005% P20)
T2 construct: Bim BH3 peptide, residues 81-106 of Swiss-Prot O43521; also called immobilized Bim BH3 peptide; Bim peptide
T2 sequence (peptide, as listed by the source): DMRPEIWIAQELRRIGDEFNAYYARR

T1 sequence (Q07817 other isoform, or with tags, fused parts or gaps internal deletion of 45–85 | internal deletion of 45–85): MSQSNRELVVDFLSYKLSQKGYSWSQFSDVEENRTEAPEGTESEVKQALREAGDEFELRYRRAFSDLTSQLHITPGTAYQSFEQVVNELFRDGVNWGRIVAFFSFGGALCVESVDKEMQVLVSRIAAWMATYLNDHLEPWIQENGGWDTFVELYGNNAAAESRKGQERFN

Row | Kd [1] | Ki [2] | IC50 [3] | IC50 [4] | Ki [5] | Kd [6] | Binder
1 | 2.8 nM | – | – | – | – | – | 6FAM-QEDIIRNIARHLAQVGDSMDR (Bid BH3 peptide, residues 79-99 of Swiss-Prot P55957; also called Flu-Bid; source: synthetic peptide)
2 | – | 3.2 nM | 8.64 nM | > 30000 nM | > 20000 nM | – | NLWAAQRYGRELRRMSDEFVDSFKKG (Bad BH3 peptide, residues 103-128 of GenBank CAG46757; source: provided by Dr. Peter P Roller (National Cancer Institute)) [Bad BH3 peptide (residues 103-128)]
3 | – | – | – | – | – | 0.2 nM | B1
4 | – | > 10000 nM | > 30000 nM | 51 nM | 97 nM | – | PAELEVECATQLRRFGDKLNFRQKLL (Noxa BH3 peptide, residues 18-43 of Swiss-Prot Q13794; source: provided by Dr. Peter P Roller (National Cancer Institute)) [Noxa BH3 peptide (residues 18-43)]
5 | – | – | – | 60.1 nM | 6 nM | – | QEDIIRNIARHLAQVGDSMDR (Bid BH3 peptide, residues 79-99 of Swiss-Prot P55957; also called unlabeled Bid BH3 peptide; source: provided by Dr. Peter P Roller (National Cancer Institute)) [Bid BH3 peptide (residues 79-99)]
